Assay results: US20190161756, “Anti-Immunoglobulin G Aptamers and Uses Thereof” (Laboratoire Francais du Fractionnement et des …, published 2019)

What was measured:
Conditions in all cases: chain copies: 2; label: biotin
[1] = biological target: T1, IgG4 (plasma IgG sub-class) (Homo sapiens, UniProt P01861-1 P01861-1:1-327); test: SPR; pH 5.5; faster association, partly eluted by 2 M NaCl
Protocol: (§1) Plasma IgG's sub-classes were injected at pH 5.5 (in duplicates), whereby a complex was formed as evidenced by the increase of the signal. […] The solid support was then regenerated by injection of a solution of NaOH at 50 mM. X-axis: time in s. Y-axis: SPR response in arbitrary scale.
(§2) The selected aptamer was synthetized with Biotin and a triethylene glycol spacer at the 5′ end of the oligonucleotide. A 1 μM solution of the aptamer was prepared using the SELEX selection buffer. The aptamer solution was heated to 90° C. for 5 min, incubated on ice for 5 min and equilibrated to room temperature for 10 min. The preparation was injected on a streptavidin coated sensor chip SA of Biacore T200 instrument (GE Healthcare) at a flow rate of 10 μl/min for 7 min. Then, different concentrations of the target (Human polyclonal IgG, purified from human plasma with a purity of >95%) were injected to the immobilised aptamer at 30 μl/min for 1 minute. After dissociation for 1-2 min a wash step was performed by injecting a suitable wash buffer at 30 μl/min for 1 min. For elution, a suitable elution buffer was injected at 30 μl/min for 1-2 min Finally the sensor chip was regenerated by injection of 50 mM NaOH at 30 μl/min for 30 sec. During the course of the experiment the response signal was recorded in a sensorgram.

[2] = biological target: T1, IgG4 (plasma IgG sub-class); test: SPR; pH 5.5; resistant to 2 M NaCl
[3] = biological target: T1, IgG4 (plasma IgG sub-class); test: SPR; pH 5.5; resistant to 2 M NaCl; remark: listed apart in the source
Protocol: as §1, §2

T1 sequence (P01861 other isoform, or with tags, fused parts or gaps): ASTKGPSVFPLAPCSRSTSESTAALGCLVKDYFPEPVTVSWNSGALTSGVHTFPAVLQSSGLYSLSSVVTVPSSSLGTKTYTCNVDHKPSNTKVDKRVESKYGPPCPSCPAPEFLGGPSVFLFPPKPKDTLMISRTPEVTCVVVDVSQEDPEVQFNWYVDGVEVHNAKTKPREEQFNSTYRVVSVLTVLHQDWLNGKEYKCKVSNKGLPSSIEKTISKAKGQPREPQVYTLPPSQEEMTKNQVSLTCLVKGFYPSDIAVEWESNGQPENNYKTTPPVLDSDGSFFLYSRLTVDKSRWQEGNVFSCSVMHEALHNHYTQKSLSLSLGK

| Binder | binding result [2] | also measured |
| --- | --- | --- |
| A6-3 (ssDNA, 5' biotin-triethylene glycol spacer) DNA: GGGTCAATGCCAGGTCTCGACTATTCCTCCGGCCTCTTCCCTAATCAGTGGCATCTCTATCGGCTCGCAAGCAGTC |  | binding result [1]: binds |
| A6-4 (ssDNA, 5' biotin-triethylene glycol spacer) DNA: GGGTCAATGCCAGGTCTCAAGTTTGTGGGGCTGGGGTTCGGTCCTGGCACAAATTCGTATCGGCTCGCAAGCAGTC | binds |  |
| A6-8 (ssDNA, 5' biotin-triethylene glycol spacer) DNA: GGGTCAATGCCAGGTCTCCACGGTATAGTCTCGCCCAGTGCCCTTTGTTGGACTTCCTATCGGCTCGCAAGCAGTC |  | binding result [3]: binds |
| A6-2 (ssDNA, 5' biotin-triethylene glycol spacer (SPR); 5' amino-C6 spacer and 3' idT (chromatography)) DNA: GGGTCAATGCCAGGTCTCCCCAGCCTCATCTCACGGCATAGTCTCGCCACACTGGAAATCGGCTCGCAAGCAGTC | binds |  |
